Data taken from article PMC5794803, “IGFBPL1 Regulates Axon Growth through IGF-1-mediated Signaling Cascades” (Scientific Reports, 2018).

Biological target: recombinant mouse IGF-1 (insulin-like growth factor 1) (mouse, UniProt P05017 49-118)
Assay: cell-based or functional assay

Sequence of recombinant mouse IGF-1 (insulin-like growth factor 1) (P05017 49-118): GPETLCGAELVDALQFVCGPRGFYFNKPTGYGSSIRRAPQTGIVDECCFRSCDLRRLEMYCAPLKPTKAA

- PI3K phosphorylation (Western blot) in P10 RGCs after co-administration of IGF-1 and IGFBPL1, compared to the control group: 6 fold
- mTOR phosphorylation (Western blot) in P10 RGCs after co-administration of IGF-1 and IGFBPL1, compared to the control group: 3 fold
B1: recombinant mouse IGFBPL1 (insulin-like growth factor binding protein-like 1) (natural protein, UniProt Q80W15 18-270, looked up)
chain: LGLRDAGRRHPECSPCQQDRCPAPSPCPAPWISARDECGCCARCLGAEGASCGGPVGSRCGPGLVCASRASGTAPEGTGLCVCAQRGAVCGSDGRSYSSICALRLRARHAPRAHHGHLHKARDGPCEFAPVVLMPPRDIHNVTGTQVFLSCEVKAVPTPVITWKKVKHSPEGTEGLEELPGDHVNIAVQVRGGPSDHETTSWILINPLRKEDEGVYHCHAANAIGEAQSHGTVTVLDLNRYKSLYSSVPGDLL
